Tests used:
Test in all cases: BLI (biotin peptide on tip)
FYCO1 = molecular target: T1, FYCO1 (Homo sapiens (Human), UniProt Q9BQS8)
T1 chain: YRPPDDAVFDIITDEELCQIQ

ATG13 = molecular target: T2, ATG13 (Homo sapiens (Human), UniProt O75143)
T2 chain: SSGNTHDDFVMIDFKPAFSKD

P62 = molecular target: T3, P62 (Homo sapiens (Human), UniProt Q13501)
T3 chain: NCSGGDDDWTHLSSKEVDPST

B1: LC3C (protein)
chain: MPPPQKIPSVRPFKQRKSLAIRQEEVAGIRAKFPNKIPVVVERYPRETFLPPLDKTKFLVPQELTMTQFLSIIRSRMVLRATEAFYLLVNNKSLVSMSATMAEIYRDYKDEDGFVYMTYASQETFG
Kd (FYCO1): 3 µM
Kd (ATG13): 0.48 µM
Kd (P62): 2.7 µM

Source: PMC6499816 (2019)
